Patent US20210292423A1

Legend:
[1] = molecular target: human CD123 (IL3RA) on cells (human) (UniProt P26951); experiment: flow cytometry, TF-1 cells, 3 µg antibody
[2] = molecular target: human CD123 (IL3RA) on cells (human) (UniProt P26951); experiment: flow cytometry, THP-1 cells, 3 µg antibody
[3] = molecular target: human CD123 (IL3RA) on cells (human) (UniProt P26951); experiment: cell-based or functional assay
[4] = molecular target: Macaca fascicularis CD3ε/δ-Fc fusion protein (Macaca fascicularis) (UniProt Q95LI8); experiment: SPR single point, hybridoma supernatant
[5] = molecular target: Macaca fascicularis CD3ε/δ-Fc fusion protein (Macaca fascicularis) (UniProt Q95LI8); experiment: SPR Biacore, ratio against human CD3εδ
[6] = molecular target: Macaca fascicularis CD3ε/δ-Fc fusion protein (Macaca fascicularis) (UniProt Q95LI8); experiment: SPR Biacore, Fab

human CD123 (IL3RA) on cells (human), sequence (P26951 19-378): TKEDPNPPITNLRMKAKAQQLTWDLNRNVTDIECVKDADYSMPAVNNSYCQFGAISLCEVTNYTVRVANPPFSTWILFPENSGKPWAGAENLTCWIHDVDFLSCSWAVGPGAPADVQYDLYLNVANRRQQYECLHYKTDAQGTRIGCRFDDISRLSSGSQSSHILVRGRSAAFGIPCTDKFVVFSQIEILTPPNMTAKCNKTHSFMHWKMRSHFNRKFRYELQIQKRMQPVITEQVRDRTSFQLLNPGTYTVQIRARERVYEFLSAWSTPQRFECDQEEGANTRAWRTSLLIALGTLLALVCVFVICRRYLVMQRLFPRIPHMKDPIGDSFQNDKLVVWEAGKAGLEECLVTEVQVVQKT
Macaca fascicularis CD3ε/δ-Fc fusion protein (Macaca fascicularis), sequence (chain, as listed by the source mutant, chain 1 of 2): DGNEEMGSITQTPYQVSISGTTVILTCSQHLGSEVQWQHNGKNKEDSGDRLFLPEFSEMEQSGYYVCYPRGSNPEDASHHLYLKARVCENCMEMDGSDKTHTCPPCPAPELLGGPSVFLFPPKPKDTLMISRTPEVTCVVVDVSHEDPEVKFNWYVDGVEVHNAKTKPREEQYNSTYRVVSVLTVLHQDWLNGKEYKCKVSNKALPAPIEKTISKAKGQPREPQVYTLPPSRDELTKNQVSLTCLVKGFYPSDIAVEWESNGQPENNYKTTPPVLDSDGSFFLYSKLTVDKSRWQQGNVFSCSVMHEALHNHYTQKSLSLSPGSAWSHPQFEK
Macaca fascicularis CD3ε/δ-Fc fusion protein (Macaca fascicularis), sequence (Q95LI8 22-105, stated change not applied, chain 2 of 2): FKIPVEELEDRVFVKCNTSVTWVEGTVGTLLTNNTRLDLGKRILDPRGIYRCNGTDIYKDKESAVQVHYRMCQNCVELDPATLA

% FITC positive Cells [1] [%] | % FITC positive Cells [2] [%] | Binder | EC50 [ng/ml] geomean, cytotoxic assay on THP-1 [3] [ng/mL] | other results
31.6 | 99 | CODV-Fab BFX-3E3-D3 × CD3 (bispecific antibody, part only; not given: CD3 arm, linkers, constant domains, part only) light, part: QFVLTQPNSVSTNLGSTVKLSCKRNTGNIGSNYVNWYQQHEGRSPTTMIYRDDKRPDGVPDRFSGSIDRSSNSALLTINNVQTEDEADYFCQSYSSGINIIFGGGTKLTVL heavy, part: QVQLQESGPGLVQPSQTLSLTCTVSGFSLTTYDVHWVRQPPGKGLEWMGRIQNGGITDYNSALKSRLIISRDTSKSQVFLKMNSVQTEDTAMYFCAKTGSYFYAFDHWGQGTLVTVSS | 12.2 | 
60.7 | 99.7 | CODV-Fab BFX-9F6-G3 × CD3 (bispecific antibody, part only; not given: anti-CD3 arm, linkers, constant domains, V domains shown, not shown: another chain or arm of the molecule; a dimerising Fc or GST; small tags and cut ends) VL: DIQMTQSPASLSASLGETVTIECRPSEDIHSNVAWYQQKPGNSPQLLIYDASNLADGVPSRFSGSGSGTQYSLKINSLQSEDVASYFCHQYNIYPYTFGSGTKLELK VH: QVQLQESGPTLVKPGDSVKMSCKASGYTFTDYIIHWVKQSHGKSLEWIGYINPYSDGTNYNEKFKSKATLTVDKSTSTAYMEFSRLTSEDSAIYFCALNYGSYYAMDAWGQGTSVTVSS | 13.9 | 
 |  | 5B1-G2 anti-CD3 antibody (hybridoma supernatant) (antibody, V domains shown) VH: EVQVVETGGSLVQPGKSLKLTCATSGFSFSNAWMHWVRQSPEKQLEWVAQIKDKANNYATYYAESVKGRFTISRDDSKGSIYLQMNSLKEEDTAVYYCRGLYYGLFPSDYWGQGVMVTVSS VL: DVVMTQTPVSLSVSLGGQVSISCRSSQSLVHNNGNTYLSWYLLKPGQSPQLLIYKVSNRFSGISDRFSGGGSGTDFTLKISRLEPDDLGIYYCGQGTQYPFTFGSGTKLEIK |  | RU at 25 nM [4]: 0.5 RU
 |  | 5B1-G2 Fab (Fab, V domains shown) VH: EVQVVETGGSLVQPGKSLKLTCATSGFSFSNAWMHWVRQSPEKQLEWVAQIKDKANNYATYYAESVKGRFTISRDDSKGSIYLQMNSLKEEDTAVYYCRGLYYGLFPSDYWGQGVMVTVSS VL: DVVMTQTPVSLSVSLGGQVSISCRSSQSLVHNNGNTYLSWYLLKPGQSPQLLIYKVSNRFSGISDRFSGGGSGTDFTLKISRLEPDDLGIYYCGQGTQYPFTFGSGTKLEIK |  | Ratio KD(cy)/KD(hu) [5]: 1
 |  | CODV-Fab BFX-3B10-E6 × CD3 (bispecific antibody, part only; not given: CD3 arm, linkers, constant domains, part only) light, part: DVLMTQTPVSLPVSLGGQVSISCRSSQSLVHSDGDTYLHWYLQKPGQSPQLLIYRVSNRFSGVPDRFSGSGSGTDFTLKISRVEPEDLGLYYCLQTTHFPPWTFGGGTKLEMK heavy, part: QVQLQQSGPELRRPGSSVRLSCKASGYRIKDFLIHWIKNRPEHGLEWIGWIDPEDGETKYAQKFQTKATLTADTSSNTAYMQLSSLTSEDTATYFCARWGDVYYGLMRGHVMDAWGQGTSVTVSS | 429 | 
 |  | CODV-Fab BFX-6B10-E4 × CD3 (bispecific antibody, part only; not given: CD3 arm, linkers, constant domains, part only) light, part: NIVMTQSPKSMSISVGDRVTMNCKASQTVGNNIAWYQQKPGLSPQLLIDYASNRYTGVPNRFTGGGYGTDFILTINSVQAEDAAFYYCQRMYNSPTFGGGTKLELK heavy, part: EVQLVESGGGLVQPGRSLKLSCAASGFTFSHYNMAWVRQAPKKGLEWVATITYDDHSTYYRDSVKGRFTISRDTAKSTLYLQMDSLRSEDTATYYCARLVNYAFAYWGQGTLVTVSS | 39.7 | 
 |  | CODV-Fab 7G3 × OKT3 (bispecific antibody, part only; not given: OKT3 arm, linkers, constant domains, part only) light, part: DFVMTQSPSSLTVTAGEKVTMSCKSSQSLLNSGNQKNYLTWYLQKPGQPPKLLIYWASTRESGVPDRFTGSGSGTDFTLTISSVQAEDLAVYYCQNDYSYPYTFGGGTKLEIK heavy, part: EVQLQQSGPELVKPGASVKMSCKASGYTFTDYYMKWVKQSHGKSLEWIGDIIPSNGATFYNQKFKGKATLTVDRSSSTAYMHLNSLTSEDSAVYYCTRSHLLRASWFAYWGQGTLVTVSA |  | Activity EC50 [ng/ml], cytotoxic assay on THP-1 with human T cells [3]: 16 ng/mL
 |  | 12D2-E5 Fab (Fab, V domains shown) VH: EVKLVESGGGLVQPGRSLRLSCAASGFNFYAYWMGWVRQAPGKGLEWIGEIKKDGTTINYTPSLKDRFTISRDNAQNTLYLQMTKLGSEDTALYYCAREERDGYFDYWGQGVMVTVSS VL: QFVLTQPNSVSTNLGSTVKLSCKRSTGNIGSNYVNWYQQHEGRSPTTMIYRDDKRPDGVPDRFSGSIDRSSNSALLTINNVQTEDEADYFCQSYSSGIVFGGGTKLTVL |  | Ratio KD(cy)/KD(hu) [5]: 4
 |  | 12D2-E5 anti-CD3 antibody (hybridoma supernatant) (antibody, V domains shown) VH: EVKLVESGGGLVQPGRSLRLSCAASGFNFYAYWMGWVRQAPGKGLEWIGEIKKDGTTINYTPSLKDRFTISRDNAQNTLYLQMTKLGSEDTALYYCAREERDGYFDYWGQGVMVTVSS VL: QFVLTQPNSVSTNLGSTVKLSCKRSTGNIGSNYVNWYQQHEGRSPTTMIYRDDKRPDGVPDRFSGSIDRSSNSALLTINNVQTEDEADYFCQSYSSGIVFGGGTKLTVL |  | RU at 25 nM [4]: 5 RU
31.1 | 48.8 | CODV-Fab BFX-9B8-G6 × CD3 (bispecific antibody, part only; not given: anti-CD3 arm, linkers, constant domains, V domains shown, not shown: another chain or arm of the molecule; a dimerising Fc or GST; small tags and cut ends) VL: DIVMTQSPSSLAVSAGETVTINCKSSQSFLSSGDERNYVAWYQHKPGQSPKLLIYWASTRHSGVPDRFIGSGSGTDFTLTISSVQAEDLAIYYCQQYYDTPLTFGSGTKLEIK VH: EVKLQESGPSLVQSSQTLSLTCTVSGFSLTSYHIHWVRQPPGKGLEWMGVMWSDGDTSYSSALKSRLSISRDTSQSQVFLKMNSLQTEDTATYYCARGDYSSYIYLWFAYWGQGTLVTVSS | 106 | 
50.2 | 88.7 | CODV-Fab BFX-9D7-C8 × CD3 (bispecific antibody, part only; not given: anti-CD3 arm, linkers, constant domains, V domains shown, not shown: another chain or arm of the molecule; a dimerising Fc or GST; small tags and cut ends) VL: DIVMTQSPSSLAVSEGETVTINCKSSQSFLSSGDGKNYVAWYQYKPGQSPKLLIYWASTRQSGVPDRFIGSGSGTDFTLTISTVQAEDLAIYYCQQYYDTPLTFGSGTKLEIK VH: EVKLQESGPSLVQSSQTLSLTCTVSGFSLTSYHIHWVRQTPGKGLEWMGVMWSDGDTSYNSALKSRLSISRDTSQSQVFLKMNSLQTEDTATYYCARGYYSSYLYLWFAYWGQGTLVTVSS | 86.3 | 
9.3 | 24 | CODV-Fab BFX-2F8-D6 × CD3 (bispecific antibody, part only; not given: anti-CD3 arm, linkers, constant domains, V domains shown, not shown: another chain or arm of the molecule; a dimerising Fc or GST; small tags and cut ends) VH: QVQLKESGPGLVQPSQTLSLTCTVSGFSLTSYGVSWVRQPPGKGLEWIATISSAGSTYYDLVLKSRLSITRDTSKSQVFLKVHSLQTEDTAIYLCARDAPVFNYGSYNAMDSWGQGTSVTVSS VL: DIQMTQSPSFLSATVGDRVTINCKASQNINKYLNWYQQKLGEAPKRLIYNTNSLQTGIPSRFSGSGSGTDYTLTISSLQPEDVATYFCLQHKSGLTFGSGTKLEIK |  | 
 |  | humanized 4B4 Fab 4B4_11 (VL1_CM3, VH6_BM2) (Fab, V domains shown) VH: QVQLVESGGRVVQPGRSLRLTCAASGFTFSNAWMHWVRQAPGKQLEWVAQIKARSNNYATYYAESVKGRFTISRDDSKSTIYLQMNSLRAEDTAVYYCRGTYYASKPFDYWGQGTTVTVSS VL: DVVMTQSPLSLSVTLGQPVSISCRSSQSLVHDNANTYLSWSLQRPGQSPRVLIYKVSNRFSGVPDRFSGSGSGTDFTLKISRVEAEDVGVYYCGQGTQYPFTFGSGTKLEIK |  | Kd [6]: 20.4 nM; koff [6]: 0.00486 s⁻¹; kon [6]: 238000 M⁻¹ s⁻¹
 |  | CODV-Fab BFX-2B8-F3 × CD3 (bispecific antibody, part only; not given: CD3 arm, linkers, constant domains, part only) light, part: EIVLTQSPTSMTASPGEQVTITCRASSSINYMHWYQQKPGASPRPWIYETSKLASGVPDRFSGSASGTSYSLTINNMEAEDAATYYCQQWNYPSWTFGGGTKLELK heavy, part: EVQLVESGGGLVQPGRSLKLSCAASGFTFSDYNMAWVRQAPKKGLEWVATILYDGGRTYYRGSVKGRFTISRDNAKSTLYLRMDSLRSEDTATYYCATHSRGTDYFDYWGQGVMVTVSS | 107 | 
